According to the supplement of paper PMC10567573:

B1: PLK2 (parent)
chain: YAELGQCSVFPATDAPEQFISQVT
B2: ADD1 (parent)
chain: GEGTGSPPKWQIGEQEFEALMRML
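Further: lentivirally expressed fusions sorted by FACS into six bins by GFP to DsRed ratio, PSI derived from sequencing read proportions per bin multiplied by bin number.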

Variants of: B1
Assay: protein stability index of a GFP-peptide fusion (GPS, HEK-293T) (PSI 1-6); higher = more stable
Details: c terminus: a fixed tail appended
For YAELGQCSVFPATDAPEQFISQVQ [T24Q], the protein stability index was 2.68. YAELGQCSVFPATDAPEQFISLVT [Q22L] showed a protein stability index of 1.7.

Variants of: B2
Assay: as above
Details: c terminus: a fixed tail appended
GEGTGSPPKWQIGSQEFEALMRML [E14S] gave a protein stability index of 2.94. Work on GEGTGSPPKWQIGVQEFEALMRML [E14V] yielded a protein stability index of 2.29. Variant GEGTGSPPKWQIGAQEFEALMRML [E14A] has a protein stability index of 3.16. With GEGTGSPPKWQIGIQEFEALMRML [E14I] the protein stability index was 3.39. In the case of GEGTGSPPKWQIGQQEFEALMRML [E14Q], the protein stability index is reported as 3.19. For GEGTGSPPKWQIGKQEFEALMRML [E14K], the protein stability index was 3.61. For GEGTGSPPKWQIGGQEFEALMRML [E14G], the protein stability index was 2.92. GEGTGSPPKWQIGDQEFEALMRML [E14D] showed a protein stability index of 3.17. In the case of GEGTGSPPKWQLGEQEFEALMRML [I12L], the protein stability index is reported as 3.06. GEGTGSPPKWQCGEQEFEALMRML [I12C] showed a protein stability index of 3.27. Work on GEGTGSPPKWQPGEQEFEALMRML [I12P] yielded a protein stability index of 3.72. Work on GEGTGSPPKWQSGEQEFEALMRML [I12S] yielded a protein stability index of 3.83. For GEGTGSPPKWQGGEQEFEALMRML [I12G], the protein stability index was 4.08. For GEGTGSPPKWQRGEQEFEALMRML [I12R], the protein stability index was 3.12. GEGTGSPPKWQWGEQEFEALMRML [I12W] gave a protein stability index of 2.81. Variant GEGTGSPPKWQVGEQEFEALMRML [I12V] has a protein stability index of 3.22. For GEGTGSPPKWQQGEQEFEALMRML [I12Q], the protein stability index was 4.11. For GEGTGSPPKWQHGEQEFEALMRML [I12H], the protein stability index was 3.75. Work on GEGTGSPPKWQIGEQEFEALMEML [R22E] yielded a protein stability index of 3.39. GEGTGSPPKWQIGEQEFEALMPML [R22P] gave a protein stability index of 3.75. GEGTGSPPKWQIGEQEFEALMCML [R22C] gave a protein stability index of 2.21. In the case of GEGTGSPPKWQIGEQEFEALMNML [R22N], the protein stability index is reported as 3.62. In the case of GEGTGSPPKWQIGEQEFEALMTML [R22T], the protein stability index is reported as 3. Variant GEGTGSPPKWQIGEQEFEALMWML [R22W] has a protein stability index of 2.2. Work on GLGTGSPPKWQIGEQEFEALMRML [E2L] yielded a protein stability index of 3.15. For GQGTGSPPKWQIGEQEFEALMRML [E2Q], the protein stability index was 3.53. GRGTGSPPKWQIGEQEFEALMRML [E2R] showed a protein stability index of 3.16. In the case of GCGTGSPPKWQIGEQEFEALMRML [E2C], the protein stability index is reported as 3.14. GPGTGSPPKWQIGEQEFEALMRML [E2P] gave a protein stability index of 3.06. With GEGTGSPPKWQIGEQEFEALMRSL [M23S] the protein stability index was 4.68. Work on GEGTGSPPKWQIGEQEFEALMRTL [M23T] yielded a protein stability index of 3.38. GEGTGSPPKWQIGEQEFEALMRGL [M23G] showed a protein stability index of 4.56. Variant GEGTGSPPKWQIGEQEFEALMRRL [M23R] has a protein stability index of 4.26. GEGTGSPPKWQIGEQEFEALMRCL [M23C] showed a protein stability index of 3.74. Work on GEGTGSPPKWQIGEQEFEALMRAL [M23A] yielded a protein stability index of 3.58. With GEGTGSPPKWQIGEQEFEALMRFL [M23F] the protein stability index was 2.52. GEGTGSPPKWQIGEQEFEALMRYL [M23Y] showed a protein stability index of 2.96. For GEGTGSPPKWQIGEQEFEALMRKL [M23K], the protein stability index was 4.49. Work on GEGTGSPPKWQIGECEFEALMRML [Q15C] yielded a protein stability index of 2.9. GEGTGSPPKWQIGEGEFEALMRML [Q15G] showed a protein stability index of 2.99. With GEGTGSPPKWQIGEYEFEALMRML [Q15Y] the protein stability index was 2.25. In the case of GEGTGSPPKWQIGEFEFEALMRML [Q15F], the protein stability index is reported as 2.33. GEGTGSPPKWQIGEKEFEALMRML [Q15K] gave a protein stability index of 2.47. GEGTGSPPKWQIGEIEFEALMRML [Q15I] gave a protein stability index of 2.49. For GEGTGSPTKWQIGEQEFEALMRML [P8T], the protein stability index was 2.85. For GEGTGSPAKWQIGEQEFEALMRML [P8A], the protein stability index was 3.07. GEGTGSPFKWQIGEQEFEALMRML [P8F] showed a protein stability index of 2.36. For GEGTGSPEKWQIGEQEFEALMRML [P8E], the protein stability index was 3.66. For GEGTGSPSKWQIGEQEFEALMRML [P8S], the protein stability index was 2.82. Variant GEGTGSPNKWQIGEQEFEALMRML [P8N] has a protein stability index of 3.24. Work on GEGTGSPWKWQIGEQEFEALMRML [P8W] yielded a protein stability index of 2.29. With GEGTGSPPKWYIGEQEFEALMRML [Q11Y] the protein stability index was 2.57. GEGTGSPPKWRIGEQEFEALMRML [Q11R] gave a protein stability index of 3.46. With GEGTGSPPKWPIGEQEFEALMRML [Q11P] the protein stability index was 3.33. Variant GEGTGSPPKWEIGEQEFEALMRML [Q11E] has a protein stability index of 3.24. Variant GEGTGSPPKWMIGEQEFEALMRML [Q11M] has a protein stability index of 3.54. With GEGTGSPPKWTIGEQEFEALMRML [Q11T] the protein stability index was 3.51. In the case of GEGTGSPPKWSIGEQEFEALMRML [Q11S], the protein stability index is reported as 3.42. Variant GEGTGSPPKWIIGEQEFEALMRML [Q11I] has a protein stability index of 2.97. In the case of GEGTGSPPKWHIGEQEFEALMRML [Q11H], the protein stability index is reported as 3.23. GEGTGSPPKWGIGEQEFEALMRML [Q11G] gave a protein stability index of 2.66. In the case of GEGTGSPPKWDIGEQEFEALMRML [Q11D], the protein stability index is reported as 3.82. In the case of GEGTGSPPKWQIGEQEFEALMRMQ [L24Q], the protein stability index is reported as 4.74. With GEGTGSPPKWQIGEQEFEALMRMG [L24G] the protein stability index was 4.1. Variant GEGTGSPPKWQIGEQEFEALMRMI [L24I] has a protein stability index of 3.52. Variant GEGTGSPPKWQIGEQEFEALMRMN [L24N] has a protein stability index of 4.13. GEGTGSPPKWQIGEQEFEALMRMH [L24H] showed a protein stability index of 4.32. GEGTGSPPKWQIGEQEFEALMRMY [L24Y] showed a protein stability index of 2.68. With GEGTGSPPKWQIGEQEFEALMRMT [L24T] the protein stability index was 3.8. GEGTGSPPKWQIGEQEFEALMRME [L24E] showed a protein stability index of 4.98. Work on GEGTGSPPKWQIGEQEFEALMRMD [L24D] yielded a protein stability index of 4.89. Variant GEGTGSPPKWQIGEQEFEALPRML [M21P] has a protein stability index of 4.2. With GEGTGSPPKWQIGEQEFEALARML [M21A] the protein stability index was 3.35. Work on GEGTGSPPKWQIGEQEFEALRRML [M21R] yielded a protein stability index of 3.18. Work on GEGTGSPPKWQIGEQEFEALFRML [M21F] yielded a protein stability index of 3.47. With GEGTGSPPKWQIGEQEFEALLRML [M21L] the protein stability index was 2.82. GEGTGSPPKWQIGEQEFEALNRML [M21N] showed a protein stability index of 3.71. With GEGTGSPPKWQIGEQEFEALIRML [M21I] the protein stability index was 2.99. GEGTGSPPKWQIGEQEFEALERML [M21E] gave a protein stability index of 4.16. With GEGTGSPPKWQIGEQEFEAPMRML [L20P] the protein stability index was 4.45. Work on GEGTGSPPKWQIGEQEFEASMRML [L20S] yielded a protein stability index of 5.12. For GEGTGSPPKWQIGEQEFEAGMRML [L20G], the protein stability index was 4.67. GEGTGSPPKWQIGEQEFEAWMRML [L20W] showed a protein stability index of 3.61. GEGTGSPPKWQIGEQEFEAMMRML [L20M] showed a protein stability index of 3.64. GEGTGSPPKWQIGEQEFEAIMRML [L20I] gave a protein stability index of 2.46. With GEGLGSPPKWQIGEQEFEALMRML [T4L] the protein stability index was 3.38. GEGYGSPPKWQIGEQEFEALMRML [T4Y] showed a protein stability index of 3.26. Work on GEGKGSPPKWQIGEQEFEALMRML [T4K] yielded a protein stability index of 2.13. In the case of GEGCGSPPKWQIGEQEFEALMRML [T4C], the protein stability index is reported as 2.94. In the case of GEGVGSPPKWQIGEQEFEALMRML [T4V], the protein stability index is reported as 2.98. In the case of GEGGGSPPKWQIGEQEFEALMRML [T4G], the protein stability index is reported as 3.14. GEGWGSPPKWQIGEQEFEALMRML [T4W] gave a protein stability index of 2.36.
